From IntAct's records for PubMed 21209940

B1: Myoblast determination protein 1 (Mus musculus), P10085 (parent)
chain: MELLSPPLRDIDLTGPDGSLCSFETADDFYDDPCFDSPDLRFFEDLDPRLVHMGALLKPEEHAHFPTAVHPGPGAREDEHVRAPSGHHQAGRCLLWACKACKRKTTNADRRKAATMRERRRLSKVNEAFETLKRCTSSNPNQRLPKVEILRNAIRYIEGLQALLRDQDAAPPGAAAFYAPGPLPPGRGSEHYSGDSDASSPRSNCSDGMMDYSGPPSGPRRQNGYDTAYYSEAARESRPGKSAAVSSLDCLSSIVERISTDSPAAPALLLADAPPESPPGPPEGASLSDTEQGTQTPSPDAAPQCPAGSNPNAIYQVL
partner: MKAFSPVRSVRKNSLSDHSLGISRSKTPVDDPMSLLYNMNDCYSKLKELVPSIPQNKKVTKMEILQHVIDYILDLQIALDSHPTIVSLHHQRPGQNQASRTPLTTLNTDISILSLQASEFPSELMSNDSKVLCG
B2: DNA-binding protein inhibitor ID-2 (Mus musculus), P41136 (parent)
chain: B1 partner

Variants of: B1
Settings: with id2_mouse Id2, P41136

Variant	effect of a mutation on the interaction
I157K	disrupting interaction
L150K	decreasing interaction

Second part, the variant after the results:

effect of a mutation on the interaction	Variant
decreasing interaction	Q161K
decreasing interaction	L160K
disrupting interaction	I149K

Variants of: B2
Settings: with myod1_mouse Myod1, P10085

effect of a mutation on the interaction	Variant
decreasing interaction	L124K
decreasing interaction	V86K
